System: MS2 coat protein
Assay: apparent KD of MS2 coat protein; designed switch direction (-1 OFF switch, 1 ON switch): -1; higher = weaker reporter binding
In short: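 Apparent KD, taken as the median over clusters for each design, was obtained by curve-fitting normalised cluster fluorescence. Designed RNA switches had been transcribed on Illumina chips by stalled E. coli RNA polymerase and titrated with SNAP-549-labelled MS2 coat protein, doubling from 0.7 or 1.5 nM to 3 µM.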

[1] = Eterna round: R95, input ligand: microRNA oligo, concentration not stated
[2] = input ligand: microRNA oligo, concentration not stated
[3] = Eterna round: R95, input ligand: FMN 200 uM
[4] = Eterna round: R95, input ligand: none

Row | Sequence | apparent KD of MS2 coat protein (input ligand: FMN 200 uM) | apparent KD of MS2 coat protein (input ligand: none) | apparent KD of MS2 coat protein [1] | apparent KD of MS2 coat protein [2] | apparent KD of MS2 coat protein [3] | apparent KD of MS2 coat protein [4]
1 | AAAGGGAAUGAGGAUAUCGUAUUGGAUAUAGUGCGAGAAGGCAUUACAUGAGGAUCACCCAUGUUUUGUUGGGA [JR_Ex6_Sub006] (Eterna round: R97, puzzle: Exclusion 6) | 74.4 nM | 33.9 nM | – | – | – | –
2 | GUCUCAGCUGAGGAUAUAAACUCCCUUGAGGGUUUAGAAGGCAGUACAUGAGGAUCACCCAUGUGGUUCGUUUG [eternacac ex6r4 sub27] (Eterna round: R97, puzzle: Exclusion 6) | 486 nM | 139 nM | – | – | – | –
3 | AGAUGACAUGAGGAUCACCCAUGUUAGGAUAUUUAAGCCUGUACGCGCGUACUAGACGAGAGAAGGGACAUGGC [Eternabot (Original) Solution 39] (Eterna round: R97, puzzle: Exclusion 1) | 33.9 nM | 30.7 nM | – | – | – | –
4 | CGUACUCAAGUGAGGAUAUUGUCUCGGAUACGAAACAAGAAGGCACAUGAGGAUCACCCAUGUAGAGAGUACGA [Malc #30 mod 1] (puzzle: Brourd's mod of Exclusion 4) | – | – | 14.5 nM | – | – | –
5 | AAAACGUCAGGAUAUACAGAAGAGAUCACAAAAAAAAAAAAACAUGAGGAUCACCCAUGUAGAAGGGACAAAAA [Ex2 Malc#2] (Eterna round: R96, puzzle: Exclusion 2) | 185 nM | 115 nM | – | 81.2 nM | – | –
6 | AGUGUGUCAGGAUAUUCUAUUAAUUACAUGAGGAUCACCCAUGUGAAUGGACAAGGGUGUGAAGAAGGGACGUGCG [Omei Ex5 A17e] (Eterna round: R97, puzzle: Exclusion 5) | 211 nM | 381 nM | – | – | – | –
7 | GCCAGUUUUGUGAGGAUAUCGUGCCGUUAGCGGCAUGAGAAGGCACAUGAGGAUCACCCAUGUGUGCAUCCGAG [Eternabot (L1) Solution 91] (Eterna round: R97, puzzle: Brourd's mod of Exclusion 4) | 157 nM | 28.4 nM | – | – | – | –
8 | GAGCUGUGAGGAUAUACAUGAGGAUCACCCAUGUUAAGGAAGUGGUGAAUAAUUUAGUGUAGAAGGCACUUAUU [JR_Ex3_Sub023] (Eterna round: R97, puzzle: Exclusion 3) | 530 nM | 116 nM | – | – | – | –
9 | GGUUGGCGAGGAUAUACAUGAGGAUCACCCAUGUGGUCCUGAAAAAAAAAAAACCUUUGUAGAAGGCGCGGGUC [salish99_ex3_r4_035] (Eterna round: R97, puzzle: Exclusion 3) | 256 nM | 150 nM | – | – | – | –
10 | UGAACUGUAGGAUAUACAUGAGGAUCACCCAUGUCCCUUCGAUGAGGUCCCACCACGUGUAGAAGGAUGGAAGA [Eternabot (L1) Solution 11] (Eterna round: R97, puzzle: Exclusion 3) | 36.8 nM | 42.2 nM | – | – | – | –
11 | GGUACUAACACGAAAGUGUUAGUACAAUAAGCUAGUGGAACAUGAGGAUCACCCAUGUCCUCAUUAGCUCGUCUUAG [Mat - Sensor v3 - Turn-off var 2 - D37] (puzzle: Sensor v3, turn-off variant 2) | – | – | 37.6 nM | – | 14.7 nM | 12.7 nM
12 | AAAGAGCGAGGAUAUACAUGAGGAUCACCCAUGUGAAGAUGCAUGGUCUGAACGUCUGGUAGAAGGCGUAUGAA [Rebierce] (puzzle: Exclusion 3) | – | – | 119 nM | – | – | –
13 | UGAAUGUGAGGAUAUGGUGAGUAGUGCCUGAGCGCUGCUCACCAGAAGGCACAUGAGGAUCACCCAUGUACUUG [JL-ex4-2.07 denovo] (puzzle: Exclusion 4) | – | – | 49.4 nM | – | – | –
14 | AGUAACCGUCACGAAAGUGAUGGUUACACAAGCAUAUGUACAUGAGGAUCACCCAUGUCCUCAAUUGCUCGUCUUAU [Sensor 3 - 54] (puzzle: Sensor v3, turn-off variant 2) | – | – | 250 nM | – | 167 nM | 226 nM
15 | UGCAUGGUAGGAUAUACGGAACAUUAGGGUUUGUUGUGUGGACAUGAGGAUCACCCAUGUAGAAGGGCCGUGCU [JL-ex2-2.15 mat747 mod] (puzzle: Exclusion 2) | – | – | 40.4 nM | – | – | –
16 | GUCCGGCAUGUAGGAUAUGGAUCCGAUUAGGAUCCAGAAGGACAUGAGGAUCACCCAUGUACAUGUAAACAGUCAUCACCGGAC [Fiskers ExNg1 - 13] (Eterna round: R96, puzzle: Exclusion NG 1) | 44.6 nM | 18.7 nM | – | 14.1 nM | – | –

Row | Sequence | apparent KD of MS2 coat protein (input ligand: FMN 200 uM) | apparent KD of MS2 coat protein (input ligand: none) | apparent KD of MS2 coat protein [1] | apparent KD of MS2 coat protein [2] | apparent KD of MS2 coat protein [3] | apparent KD of MS2 coat protein [4]
17 | GAGUGACAUGAGGAUCACCCAUGUGAGGAUAUCGGACGGACCAAGUUAACAUCCGCCGCGAGAAGGCACAUCGG [Exclusion 1 V23] (puzzle: Exclusion 1) | – | – | 104 nM | – | – | –
18 | GGAGCGAUUCUCUUAGCUGACAUGAGGAUCACCCAUGUAUGCAAGCUCUUAUUUUGCUCGUCUUACCGGGAAUUGCU [Uslainar] (puzzle: Sensor v3, turn-off variant 1) | – | – | 18.5 nM | – | 14.8 nM | 13.2 nM
19 | AGUACUAACACGAAAGUGUUAGUACAAUAAGCUAGUGGAACAUGAGGAUCACCCAUGUCCUCAUUAGCUCGUCUUGU [Mat - Sensor v3 - Turn-off var 2 - D39] (puzzle: Sensor v3, turn-off variant 2) | – | – | 34.8 nM | – | 16.2 nM | 12.5 nM
20 | GAAUGAGAGCAGGAUAUCUUAUCAAUGUACGAAAGAGAAGGGCUCACAUGAGGAUCACCCAUGUGGUCCUAGAU [jl-ex6-4.66 jandersonlee mod] (Eterna round: R97, puzzle: Exclusion 6) | 576 nM | 78.8 nM | – | – | – | –
21 | AUUUAGUGAGGAUAUGGUAACGUUUACAUGAGGAUCACCCAUGUUUCAUGGGACUAGAGACUAGAAGGCACUAACG [JR_Ex5_Sub029] (Eterna round: R97, puzzle: Exclusion 5) | 291 nM | 306 nM | – | – | – | –
22 | AAUUUACAUGAGGAUCACCCAUGUGAGGAUAUGGAUUCGCUGGCCGUAGCCAGUGGAUCCAGAAGGCGCGUGAU [JL-ex1-4.28] (Eterna round: R97, puzzle: Exclusion 1) | 182 nM | 98.2 nM | – | – | – | –
23 | GCAUUGAGUGUGAGGAUAUGCUGGUCGUAAGAUCAGCAGAAGGCACAUGAGGAUCACCCAUGUGAAAACAAUGC [Mat - Exclusion 4 - JL Mod - D67] (puzzle: Brourd's mod of Exclusion 4) | – | – | 23 nM | – | 125 nM | 23.4 nM
24 | AGGUGUAGAGGAUAUCUCUUCUCUCACAUGAGGAUCACCCAUGUCCUGGGUACCUGGGAGAGAGAAGGCUACACCA [Omei Ex5 D12] (Eterna round: R97, puzzle: Exclusion 5) | 1060 nM | 2460 nM | – | – | – | –
25 | GCACGGAGUGUAGGAUAUUAGUGCGAUUAGCACUGAGAAGGACAUGAGGAUCACCCAUGUUCCUCAAUAAAAUACCUUCCGUGC [Eli exng1 - 040] (Eterna round: R96, puzzle: Exclusion NG 1) | 13.4 nM | 13.7 nM | – | 10 nM | – | –
26 | AGAAAGGAAGGAUAUACAAGAAAGCCGGGCAACGUCUCAGAACAUGAGGAUCACCCAUGUAGAAGGUCCAGGAA [Tisoiste] (puzzle: Exclusion 2) | – | – | 32.6 nM | – | 92.3 nM | 32.8 nM
27 | CAGUACUGAGGAUAUACAUGAGGAUCACCCAUGUGUUCCAGCUAGGAAUCUAGCAAAAGUAGAAGGCAGUACUG [salish99_ex3_r3_094x] (Eterna round: R96, puzzle: Exclusion 3) | 727 nM | 25.1 nM | – | 22.4 nM | – | –
28 | AUAUUUAGCUUUUUGUGAAACAUGAGGAUCACCCAUGUCCUCAUAACUGGACAUUUAAGUCUAGAAGCUCGUCUUAU [Last end dangle 3] (Eterna round: R97, puzzle: Sensor, turn-off variant 1) | 475 nM | 553 nM | – | – | – | –
29 | ACUCCUCCUGUUAGGAUAUGCAUCGGGCUUCCGCAGCAGAAGGAACAUGAGGAUCACCCAUGUCAAAUAAAAUC [Inxebexe] (Eterna round: R96, puzzle: Brourd's mod of Exclusion 4) | 153 nM | 26.9 nM | – | 20.7 nM | – | –
30 | GGUCCUGAUGAUUUCCUAUACAUGAGGAUCACCCAUGUAUGUGUAUUUUGUUUUUCGCUUUUUGGUCGUCAAUAAUA [Mod-Hoo-honey-2] (Eterna round: R97, puzzle: Sensor, turn-off variant 1) | 32.6 nM | 33.4 nM | – | – | – | –
31 | AAAGAACAUGAGGAUCACCCAUGUGAGGAUAUGCGAAAACCGCUAACAAACCAGACGGGCAGAAGGCAUAUGGU [Leistequ] (puzzle: Exclusion 1) | – | – | 39.1 nM | – | 68.9 nM | 63.7 nM
